{"source": "patent US20080247947A1", "about": "“High dose 111In-pentetreotide therapy of neuroendocrine tumors” (priority 2007, published 2008)", "key": {"[1]": {"conditions": "cited from earlier work"}, "[2]": {"test_system": "carcinoid syndrome, advanced disease", "conditions": "patients with advanced disease; cited from earlier work"}, "carcinoid tumors": {"test_system": "carcinoid tumors", "conditions": "cited from earlier work"}, "[3]": {"test_system": "patients with progressive neuroendocrine tumors", "assay": "Non-randomized trial: hematological, renal and hepatic toxicities by NCI common toxicities criteria", "type": "in vivo", "protocol": "In a non-randomized trial, 32 patients (21 men and 11 women, from 16-83 years old (average 56 years old)) were tested. Among these patients, there were 25 Caucasions (78%), 2 Blacks (6%), 4 Hispanics (12.5%) and 1 other (3%). All patients had progressive neuroendocrine tumors (21 Carcinoma, 7 Islet Cell Carcinoma of the Pancreas, 1 Pituitary Adenoma, 1 Glucagonoma, and 1 Pheochromocytoma) and all had failed first line therapy (23 chemotherapy, 12 radiotherapy, and 28 surgery).\nFourteen patients received one therapy (ranging from 473.5 to 511.6 mCi, with an average of 489.2 mCi) and 18 patients received two treatments with the cumulative doses ranging from 955.1 to 1,006.1 mCi (average=982.8 mCi/patient). Patients were evaluated for evidence of hematological, renal and hepatic toxicities using NCI common toxicities criteria and followed for an average of 9 months (ranging from 1.7 to 17.2 months).\n(§1) Patients were injected with ^111In-pentetreotide at an average dose of 489.2 mCi (ranging from 473.5 to 511.6 mCi) as an intravenous infusion in physiological saline using a specially designed IV pole to decrease radiation exposure to the personnel. The infusion took about 3 to 5 hours, in an outpatient setting. The amount of octreotide administered was 30 mg. Patients were evaluated for hematological, renal and hepatic toxicities using NCI common toxicities criteria on week 4, 5, 6, and 7 after treatment, and every three months thereafter. Patients were followed for an average of 8.69 months with a range of 1.7-17.2 months. 18 patients received a second treatment 10-12 weeks after the first therapy with an average cumulative dose of 982.8 mCi (ranging from 955.1 to 1006.1 mCi). These patients were evaluated for a clinical and metabolic responses beginning 4 weeks after their second therapy."}, "[4]": {"test_system": "progressive neuroendocrine tumors", "assay": "Non-randomized trial: clinical, metabolic and imaging response (RECIST) after two cycles", "type": "in vivo", "conditions": "18 patients, two cycles of 500 mCi", "excerpt": "Among these patients, seventeen (53%) had grade I or II hematological toxicities, while one patient had grade III thrombocytopenia with nadir mean of 5 weeks (ranging from 4 to 6 weeks) after therapy (FIG. 2). These toxicities were transient, lasting from 1 to 6 weeks (averaging 3 weeks). […] One patient had grad II liver toxicity which appeared 4 weeks after the therapy and resolved in week 5. […] Among the 18 patients (13 men and 5 women, from 41 to 83 years old (average age 59)), who were treated with two cycles of high dose (500 mCi) ^111In-pentetreotide, therapeutic efficacy of this treatment regimen is evident (FIG. 3). These patient had progressive neuroendocrine tumors and failed first-line therapy. According to the pre-therapy diagnostic ^111In-pentetreotide scan, these patients had grade 3 to grade 5 tumors. In this trial, each dose of ^111In-pentetreotide was infused over a period of 3 to 6 hours. The two treatments were spaced a few weeks (e.g., […]) apart. The patients were monitored for clinical, metabolic, and imaging responses based on using Response Evaluation Criteria in Solid Tumors (RECIST) criteria (Therasse P, Arbuck S G, Eisenhauer E A, et al. New guidelines to evaluate the response to treatment in solid tumors. European Organization for Research and Treatment of Cancer, National Cancer Institute of the United States, National Cancer Institute of Canada. Journal of the National Cancer Institute 2000; 92(3):205-16.).\nas §1\nThe efficacy of ^111In-pentetreotide therapy was evaluated in 18 patients who received two cycles of therapy. The primary endpoint was clinical, metabolic and imaging response using RECIS criteria. […] Tumor image before and after treatment showing no progression (FIG. 6)."}, "disseminated NETs": {"test_system": "disseminated NETs", "conditions": "16 patients, repeated doses 81-134 mCi, cited from earlier work"}, "NETs": {"test_system": "NETs", "conditions": "180 mCi every 3 weeks for 10 occasions; cited from earlier work"}, "[5]": {"conditions": "18 patients, double-dose treatments"}, "[6]": {"conditions": "32 patients, one or two cycles of about 500 mCi"}}, "note": "“Also recorded” adds a separate entry of the source.", "data": [{"molecule": "C[C@@H](O)[C@@H]1NC(=O)[C@H](CCCCN)NC(=O)[C@@H](Cc2c[nH]c3ccccc23)NC(=O)[C@H](Cc2ccccc2)NC(=O)[C@@H](NC(=O)[C@H](N)Cc2ccccc2)CSSC[C@@H](C(=O)N[C@H](CO)[C@@H](C)O)NC1=O", "note": "[octreotide]", "values": [{"measurement": "in vivo half-life", "setting": "[1]", "result": "1.5 to 2", "unit": "h"}, {"measurement": "tumor stabilization, patients", "setting": "[2]", "result": "50-55%"}]}, {"molecule": "Interferon [Interferon (IFN)]", "values": [{"measurement": "biochemical response rate", "setting": "carcinoid tumors; carcinoid tumors", "result": 40, "unit": "%"}, {"measurement": "tumor response rate", "setting": "carcinoid tumors; carcinoid tumors", "result": 12, "unit": "%"}, {"measurement": "toxicity", "setting": "carcinoid tumors; fever, anorexia, weight loss, fatigue and myelosuppression", "result": "significant toxicity"}]}, {"molecule": "[^111In-DTPA-D-Phe1]-octreotide [^111In-pentetreotide]", "values": [{"measurement": "nose bleeds", "setting": "[3]; 4 weeks after treatment", "result": "One patient"}, {"measurement": "patients with grade I or grade II hematological toxicities", "setting": "[3]; 18 patients, double-dose (two cycles of 500 mCi)", "result": 55, "unit": "%"}, {"measurement": "duration of hematological toxicities", "setting": "[3]; [5]", "result": "1-6 weeks"}, {"measurement": "grade III thrombocytopenia", "setting": "[3]; [5]", "result": "one patient"}, {"measurement": "nadir mean after therapy", "setting": "[3]; [5]", "result": 5, "unit": "weeks"}, {"measurement": "need for supportive therapy", "setting": "[3]; [5]", "result": "None of the patients required supportive therapy"}, {"measurement": "renal toxicity", "setting": "[3]; 18 patients, double-dose treatments, follow-up 3.93 to 17.23 months", "result": "No renal toxicity was observed"}, {"measurement": "grade II liver toxicities", "setting": "[3]; 18 patients, double-dose treatments, appeared 4 weeks after therapy, resolved on week 5", "result": "One patient"}, {"measurement": "renal toxicity", "setting": "[3]; 32 patients, follow-up 1.7 to 17.2 months", "result": "no evidence of renal toxicity; also recorded: No significant short or long term renal toxicity"}, {"measurement": "need for supportive therapy", "setting": "[3]; 32 patients, one or two cycles", "result": "None of the patients required supportive therapy"}, {"measurement": "duration of hematological toxicities (average)", "setting": "[3]; [6]", "result": 3, "unit": "weeks"}, {"measurement": "grade III thrombocytopenia", "setting": "[3]; [6]", "result": "one patient"}, {"measurement": "nadir mean of hematological toxicity after therapy", "setting": "[3]; [6]", "result": 5, "unit": "weeks"}, {"measurement": "patients with grade I or II hematological toxicities", "setting": "[3]; 32 patients, one or two cycles of about 500 mCi, intravenous infusion", "result": 53, "unit": "%"}, {"measurement": "grade II liver toxicity", "setting": "[3]; 32 patients, appeared 4 weeks after therapy, resolved in week 5", "result": "One patient"}, {"measurement": "deaths during the course of the study", "setting": "[3]; 32 patients, deaths attributed to tumor burden", "result": "Two patients died"}, {"measurement": "maximum tolerated dose", "setting": "[3]; average cumulative dose 982.8 mCi, average follow up 8.69 months", "result": "maximum tolerated dose has not been reached"}, {"measurement": "overall treatment associated toxicity", "setting": "[3]; following one or two cycles", "result": "no evidence of significant treatment associated toxicity"}, {"measurement": "clinical response (functional living index questionnaire and physical examination), patients", "setting": "[4]", "result": 84, "unit": "%"}, {"measurement": "metabolic response (25% or more decline in chromogranin or other markers), patients", "setting": "[4]", "result": 72, "unit": "%"}, {"measurement": "patients achieving stable disease by imaging criteria", "setting": "[4]", "result": 88, "unit": "%"}, {"measurement": "patients achieving stable disease by imaging criteria (count)", "setting": "[4]", "result": "sixteen out of the 18"}, {"measurement": "patients with sustained benefit", "setting": "disseminated NETs; 18 months after the treatments", "result": 31, "unit": "%"}, {"measurement": "patients with some short term benefits", "setting": "disseminated NETs", "result": "up to 70%"}, {"measurement": "safety of repeated doses", "setting": "NETs", "result": "demonstrated the safety"}]}]}
